Experimental data as given in PMC2606027 (2009).

B1: LEDGF IBD fused to Gal4 transcription activation domain (WT prey) [human] / Full-length HIV-1 IN fused to the DNA binding domain of Gal4 (WT bait) [HIV-1] (parent complex)
chain 1: SMDSRLQRIHAEIKNSLKIDNLDVNRCIEALDELASLQVTMQQAQKHTEMITTLKKIRRFKVSQVIMEKSTMLYNKFKNMFLV
chain 2: not shown

Variants of: B1
Assay: yeast two-hybrid (β-galactosidase reporter); S. cerevisiae Y187; quadruplicate measurements

Variant | percent of parent
chain 1 K14E | 139 % of WT/WT
chain 1 K46E | 129 % of WT/WT

Variants of: B1
Assay: yeast two-hybrid (β-galactosidase reporter); S. cerevisiae Y187; quadruplicate measurements; read off a plot

Variant | percent of parent
chain 1 K55E, chain 1 K56E, chain 1 R59E | ~1.4 % of WT/WT
chain 1 D20N | ~1.2 % of WT/WT
chain 1 K55E, chain 1 K56S, chain 1 R59E | ~1.3 % of WT/WT
